tested on: Escherichia coli TOP10; test: shrunken log2 fold change of peptide-encoding DNA abundance (4.5 h post-induction vs induction); higher = less antimicrobial activity (less host growth inhibition); details: time post-induction: 4.5 h; library: site-saturation at positions 5, 18, 19, 20
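Further: peptides expressed intracellularly from a pBAD plasmid library in pooled LB shake-flask culture, induced with 0.3% L-arabinose, DNA abundance read by NGS, three biological replicates, DESeq2 with apeglm shrinkage.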

Row | Sequence | shrunken log2 fold change
1 | RRIRLRPPRLPRPRPRPHWQPRP | 0.0281
2 | RRIRTRPPRLPRPRPRPTFSPRP | -0.169
3 | RRIRYRPPRLPRPRPRPYFVPRP | -0.858
4 | RRIRWRPPRLPRPRPRPNHLPRP | -0.281
5 | RRIRCRPPRLPRPRPRPHDYPRP | -0.482
6 | RRIRARPPRLPRPRPRPQTLPRP | 0.0847
7 | RRIRIRPPRLPRPRPRPLVMPRP | -1.56
8 | RRIRGRPPRLPRPRPRPWYKPRP | -0.015
9 | RRIRVRPPRLPRPRPRPDDWPRP | -0.198
10 | RRIRNRPPRLPRPRPRPTSFPRP | 0.00362
11 | RRIRARPPRLPRPRPRPGCMPRP | 0.727
12 | RRIRIRPPRLPRPRPRPIWMPRP | -0.176
13 | RRIRHRPPRLPRPRPRPDIDPRP | -0.235
14 | RRIRSRPPRLPRPRPRPGHIPRP | -0.109
15 | RRIRTRPPRLPRPRPRPNSIPRP | -0.0867
16 | RRIRERPPRLPRPRPRPSAMPRP | -0.279
17 | RRIRVRPPRLPRPRPRPYGDPRP | -0.168
18 | RRIRCRPPRLPRPRPRPGEFPRP | -0.179
19 | RRIRGRPPRLPRPRPRPFAFPRP | 0.531
20 | RRIRTRPPRLPRPRPRPNATPRP | 0.469
21 | RRIRFRPPRLPRPRPRPSPAPRP | 0.176
22 | RRIRIRPPRLPRPRPRPTTFPRP | -0.688

Row | Sequence | shrunken log2 fold change
23 | RRIRPRPPRLPRPRPRPTNPPRP | 0.174
24 | RRIRERPPRLPRPRPRPYYAPRP | -0.72
25 | RRIRFRPPRLPRPRPRPLHIPRP | -0.7
26 | RRIRVRPPRLPRPRPRPLRGPRP | 0.764
27 | RRIRIRPPRLPRPRPRPLTFPRP | -0.173
28 | RRIRLRPPRLPRPRPRPYMNPRP | -1.06
29 | RRIRVRPPRLPRPRPRPRIWPRP | 0.468
30 | RRIRHRPPRLPRPRPRPYCWPRP | -0.352
31 | RRIRHRPPRLPRPRPRPCHDPRP | 0.0948
32 | RRIRCRPPRLPRPRPRPIHCPRP | -0.0192
33 | RRIRQRPPRLPRPRPRPRRVPRP | 0.252
34 | RRIRCRPPRLPRPRPRPKMAPRP | 0.0796
35 | RRIRGRPPRLPRPRPRPIINPRP | 0.0488
36 | RRIRVRPPRLPRPRPRPSNSPRP | -0.826
37 | RRIRMRPPRLPRPRPRPHLRPRP | 0.0326
38 | RRIRTRPPRLPRPRPRPPAQPRP | 0.608
39 | RRIRDRPPRLPRPRPRPKPHPRP | 0.305
40 | RRIRCRPPRLPRPRPRPKELPRP | -0.000896
41 | RRIRVRPPRLPRPRPRPWITPRP | -1.08
42 | RRIRYRPPRLPRPRPRPTSYPRP | -0.0849
43 | RRIRNRPPRLPRPRPRPLGHPRP | -0.262
44 | RRIRPRPPRLPRPRPRPWTIPRP | -0.117

Row | Sequence | shrunken log2 fold change
45 | RRIRKRPPRLPRPRPRPRCVPRP | 0.276
46 | RRIRYRPPRLPRPRPRPMSYPRP | -0.0389
47 | RRIRARPPRLPRPRPRPPEIPRP | 0.301
48 | RRIRLRPPRLPRPRPRPTAWPRP | 0.222
49 | RRIRGRPPRLPRPRPRPDSKPRP | 0.125
50 | RRIRHRPPRLPRPRPRPYVHPRP | -0.312
51 | RRIRYRPPRLPRPRPRPRTLPRP | -0.537
52 | RRIRHRPPRLPRPRPRPNFKPRP | -0.189
53 | RRIRRRPPRLPRPRPRPCPDPRP | -0.0762
54 | RRIRGRPPRLPRPRPRPCPMPRP | 1.17
55 | RRIRWRPPRLPRPRPRPGSDPRP | 0.661
56 | RRIRDRPPRLPRPRPRPHPLPRP | -0.216
57 | RRIRHRPPRLPRPRPRPNNKPRP | -0.75
58 | RRIRGRPPRLPRPRPRPDIVPRP | 0.192
59 | RRIRERPPRLPRPRPRPSWEPRP | -0.25
60 | RRIRTRPPRLPRPRPRPGMWPRP | 0.158
61 | RRIRQRPPRLPRPRPRPCVRPRP | -0.154
62 | RRIRYRPPRLPRPRPRPSGNPRP | -0.067
63 | RRIRWRPPRLPRPRPRPTRMPRP | 0.381
64 | RRIRSRPPRLPRPRPRPDDTPRP | -0.144
65 | RRIRPRPPRLPRPRPRPLTWPRP | 0.0214
66 | RRIRNRPPRLPRPRPRPVTWPRP | -0.0637

Row | Sequence | shrunken log2 fold change
67 | RRIRYRPPRLPRPRPRPNQHPRP | -1.18
68 | RRIRGRPPRLPRPRPRPKYCPRP | 0.203
69 | RRIRPRPPRLPRPRPRPPKPPRP | 0.0495
70 | RRIRNRPPRLPRPRPRPNKWPRP | -0.155
71 | RRIRPRPPRLPRPRPRPDHRPRP | -0.0495
72 | RRIRLRPPRLPRPRPRPIGAPRP | -0.0568
73 | RRIRWRPPRLPRPRPRPGWGPRP | 0.534
74 | RRIRRRPPRLPRPRPRPCHYPRP | 0.00952
75 | RRIRPRPPRLPRPRPRPQHYPRP | -0.675
76 | RRIRWRPPRLPRPRPRPMKDPRP | -0.141
77 | RRIRERPPRLPRPRPRPDQGPRP | 0.0476
78 | RRIRQRPPRLPRPRPRPSLKPRP | -0.235
79 | RRIRDRPPRLPRPRPRPSATPRP | 0.515
80 | RRIRQRPPRLPRPRPRPNYFPRP | -0.149
81 | RRIRHRPPRLPRPRPRPGASPRP | -0.196
82 | RRIRGRPPRLPRPRPRPRLKPRP | 0.777
83 | RRIRDRPPRLPRPRPRPATGPRP | 0.312
84 | RRIRYRPPRLPRPRPRPQTRPRP | -0.322
85 | RRIRARPPRLPRPRPRPGFSPRP | 0.329
86 | RRIRARPPRLPRPRPRPKKQPRP | 0.0491
87 | RRIRWRPPRLPRPRPRPQWSPRP | -0.0983
88 | RRIRWRPPRLPRPRPRPDRVPRP | 0.0957

Row | Sequence | shrunken log2 fold change
89 | RRIRCRPPRLPRPRPRPHKFPRP | -0.742
90 | RRIRTRPPRLPRPRPRPDSKPRP | 0.0427
91 | RRIRTRPPRLPRPRPRPLYTPRP | -0.322
92 | RRIRCRPPRLPRPRPRPLKYPRP | -0.566
93 | RRIRVRPPRLPRPRPRPWYQPRP | -0.197
94 | RRIRVRPPRLPRPRPRPIMFPRP | -0.0691
95 | RRIRSRPPRLPRPRPRPVQFPRP | 0.11
96 | RRIRYRPPRLPRPRPRPFLSPRP | -0.0547
97 | RRIRGRPPRLPRPRPRPKVIPRP | 0.197
98 | RRIRGRPPRLPRPRPRPERQPRP | 0.101
99 | RRIRSRPPRLPRPRPRPNYPPRP | -0.195
100 | RRIRFRPPRLPRPRPRPFSDPRP | -0.229
101 | RRIRNRPPRLPRPRPRPLYWPRP | -0.437
102 | RRIRERPPRLPRPRPRPEDLPRP | 0.0648
103 | RRIRERPPRLPRPRPRPPHNPRP | 0.637
104 | RRIRFRPPRLPRPRPRPMEDPRP | -0.015
105 | RRIRMRPPRLPRPRPRPGAWPRP | 0.122
106 | RRIRCRPPRLPRPRPRPKVCPRP | 0.0885
107 | RRIRERPPRLPRPRPRPAYTPRP | -0.284
108 | RRIRSRPPRLPRPRPRPICHPRP | -0.179
109 | RRIRYRPPRLPRPRPRPKPPPRP | 0.524

From the supplement of paper PMC9112550, “Optimization of the antimicrobial peptide Bac7 by deep mutational scanning” (BMC Biology, 2022)
